From the DeepSol protein solubility set

Test: soluble on expression in E. coli; label from the status in PepcDB or PDB records
In the case of “MVAQSKILLYYKFTPIADPKAMMLWQRDMCELLGLKGRILISEHGINGTVGGDMDACKRYVRKMREYPGFRGTEFKWSDGGAEDFPKLSVKVRDEIVAFGAPGELKVDEKGVIGGGVHLKPEEVNKLVEERGDDVVFFDGRNAMEAQIGKFKNAVVPDVRTTHDFIRELESGKYDWMKDKPVVSYCTGGIRCEILSSLMKNRGFKEIYQIDGGIVRYGEKYGNDGLWEGSLYVFDRRMHMEFGNGVQDPGFIQLGHCVQCGAPTNKFEHCINEDECRELVLMCPDCYENPATRNCGREHCKEVAAEAAAAAAVLEHHHHHH”, the “soluble on expression in E. coli” value is reported as “soluble”. For “SLWASADAIQQKLADLEKRSGGRLGVALINTADDSQTLYRGDERFAMCSTGKVMAAAAVLKQSESNPEVVNKRLEIKKSDLVVWSPITEKHLQSGMTLAELSAAALQYSDNTAMNKMISYLGGPEKVTAFAQSIGDVTFRLDRTEPALNSAIPGDKRDTTTPLAMAESLRKLTLGNALGEQQRAQLVTWLKGNTTGGQSIRAGLPASWAVGDKTGAGDYGTTNDIAVIWPENHAPLVLVTYFTQPQQDAKSRKEVLAAAAKIVTEGL”, the “soluble on expression in E. coli” value was “soluble”. For “LVPRGSDSSRRQYQEKYKQVEQYMSFHKLPADFRQKIHDYYEHRYQGKMFDEDSILGELNGPLREEIVNFNNRKLVASMPLFANADPNFVTAMLTKLKFEVFQPGDYIIREGTIGKKMYFIQHGVVSVLTKGNKEMKLSDGSYFGEISLLTRGRRTASVRADTYSRLYSLSVDNFNEVLEEYPMMRRAFETVAIDRLDRIGKKN”, the “soluble on expression in E. coli” value was “soluble”. In the case of “MSLAQNSSIDYPSYQKRNTDALEISRIVRNDTATILYMDAYSRPNYWIRLASELSLHGVQSGKKYPVIRSQGFELDKQVYMPASGNVTFTLQFAPIDPQDRTIDFVESNNEEDFRIEGICLDASVPKKKVHCHLAGKMANRPQTSRLILIESNKNTRGTPWISIPVRNGVFEYDFYTDHEKAYELICWDDLLNGCWYPVTFFAENGTVSFTISAIDARPPYRIETLNSLTTALRLFEAEGKDKFSFDELNARRDTLEKYGRFESEAMQALWKKFDQVKDNPEERNKLFRERDRLEESGEAFTKEAKALIKEREQLFRKKVIWETEQASQHPSLVGLFILKMKVENARKDEDVTPYLEAFQKVYASRYPEHPYTREMQMFIDNNQPKTGNRFIDFSAPDLNGNMVQLSEQIRGKVALIDLWASWCGPCRTTSKQLIPIYEKYKDRGFTVIGVAREQNSDIRMREAIRKDGYPWLNLIELNDVQQIWSKYRIPNAAGGTFLVNAQGIILAVNPTAEEVERILQKELEGHHHHHH”, the “soluble on expression in E. coli” value is reported as “soluble”. With “MGSDKIHHHHHHMAKDIIKLGDVATYINGYAFKPEDRGEEGLQIIRIQDLTGNSYDLGFYNGKYPKKIEINDGDVLISWSASLGVYVWNGGKALLNQHIFKVKFDKVDIDKSYFVYAVRYKLNDMGKKTHGATMKHIVKRDFDATEIPYPPLKKQIEIAINLDKVLMVIKERKRELKLLDELIKARFVEMFGDCTNMISLSDLCLIITDGTHQSPKFQHEGIPFILVSNLSKNTVTYDTDKFISAETYKELYKRTPIEIGDILLSTVGSYGHPAVVVEDRKFLFQRHIAYLKPKSDILNSYYMHGALLSPGCQRQIEEKVKGIAQKTLNLSEIRKIRIPVPSLDLQKQYADFVHQVNKSKVAVQKALDETQILFDSLMQKYFG” the “soluble on expression in E. coli” value was “not soluble”. In the case of “MGSDKIHHHHHHYATPEEYYKATGKKITEYHESPMLTKLVEEGKLPPVEQRLPEEPLVVQPVEKVGQFGGTWRRVWKGPSDRWGISKLIEVKLAFWDKEGGKLVPGLAKSWEVLENGRVYIFHLRKGVKWSDGAPYTAHDIVFWVNDIVGNDDITPSKPDWYNIGVKVEALDDYTVKFEFSKPYGLFLLKVPYGGFTGAPAHYLKQFHPKYTPMEEIEKKMVEGVHNTWVDLFNDKNDFLENTELPTLSPWKPITDPTEQFYILERNPYFWAVDIEGNQLPYIDYVRHEYVKNDEVILLKAISGEIDMQWRHIGGLGAGAGNFTLLMENSQSGGYRVLKWIAANGSASRISLNYAHSDEVLRKVFNDVRFRQALSLAINREEINEILFNGLAEPRQASLVSGSPYFDPEWEKAYAEYDPDRANKLLDEMGLKWDDKHEYRLLPDGRPLRFTITVTGQFHVDVWTMVKEYWKQIGVWVEIENLERSLFYERADAGDFDAMVWNMDRAAQPLSSPMVIFPGSENIADFWYIGWSGWISYYIDKNIRGVEPEEVPEGPEPPEVVYRLVDLYYQIASTPDPDKIKELMAEATKIHRENLWMIGTVGEDLSPAIAKNNFRNVPEFLVTDDVLRTPLNAMPMQFFIEQK”, the “soluble on expression in E. coli” value is reported as “not soluble”. For “MIDFGNFYSLIAKNHLSHWLETLPAQIANWQREQQHGLFKQWSNAVEFLPEIKPYRLDLLHSVTAESEEPLSAGQIKRIETLMRNLMPWRKGPFSLYGVNIDTEWRSDWKWDRVMPHLSDLTGRTILDVGCGSGYHMWRMIGAGAHLAVGIDPTQLFLCQFEAVRKLLGNDQRAHLLPLGIEQLPALKAFDTVFSMGVLYHRRSPLEHLWQLKDQLVNEGELVLETLVIDGDENTVLVPGDRYAQMRNVYFIPSALALKNWLKKCGFVDIRIADVSVTTTEEQRRTEWMVTESLADFLDPHDPGKTVEGYPAPKRAVLIARKP”, the “soluble on expression in E. coli” value was “not soluble”. In the case of “MESTGSVGEAPGGPRVLVVGGGIAGLGAAQRLCGHSAFPHLRVLEATARAGGRIRSERCFGGVVEVGAHWIHGPSRGNPVFQLAAEYGLLGEKELSQENQLVETGGHVGLPSVSYASSGASVSLQLVAEMATLFYGLIDQTREFLHAAETPVPSVGEYLKKEIGQHVAGWTEDEETRKLKLAVLNSFFNLECCVSGTHSMDLVALAPFGEYTVLPGLDCTFSKGYQGLTNCMMAALPEDTVVFEKPVKTIHWNGSFQEAAFPGETFPVSVECEDGDRFPAHHVIVTVPLGFLREHLDTFFDPPLPAEKAEAIRKIGFGTNNKIFLEFEEPFWEPDCQLIQLVWEDTSPLEDAAPELQDAWFRKLIGFVVLPAFASVHVLCGFIAGLESEFMETLSDEEVLLCLTQVLRRVTGNPRLPAPKSVLRSRWHSAPYTRGSYSYVAVGSTGGDLDLLAQPLPADGAGAQLQILFAGEATHRTFYSTTHGALLSGWREADRLLSLWAPQVQQPRPRL”, the “soluble on expression in E. coli” value is reported as “not soluble”. In the case of “MGSDKIHHHHHHMNPQLLRVTNRIIERSRETRSAYLARIEQAKTSTVHRSQLACGNLAHGFAACQPEDKASLKSMLRNNIAIITSYNDMLSAHQPYEHYPEIIRKALHEANAVGQVAGGVPAMCDGVTQGQDGMELSLLSREVIAMSAAVGLSHNMFDGALFLGVCDKIVPGLTMAALSFGHLPAVFVPSGPMASGLPNKEKVRIRQLYAEGKVDRMALLESEAASYHAPGTCTFYGTANTNQMVVEFMGMQLPGSSFVHPDSPLRDALTAAAARQVTRMTGNGNEWMPIGKMIDEKVVVNGIVALLATGGSTNHTMHLVAMARAAGIQINWDDFSDLSDVVPLMARLYPNGPADINHFQAAGGVPVLVRELLKAGLLHEDVNTVAGFGLSRYTLEPWLNNGELDWREGAEKSLDSNVIASFEQPFSHHGGTKVLSGNLGRAVMKTSAVPVENQVIEAPAVVFESQHDVMPAFEAGLLDRDCVVVVRHQGPKANGMPELHKLMPPLGVLLDRCFKIALVTDGRLSGASGKVPSAIHVTPEAYDGGLLAKVRDGDIIRVNGQTGELTLLVDEAELAAREPHIPDLSASRVGTGRELFSALREKLSGAEQGATCITF”, the “soluble on expression in E. coli” value is reported as “not soluble”. In the case of “MDISTNKANYKPAVSQAFDGQETQDGTNILILGSDQRVTQGSTDARTDTIMVVNVGNHAKKIKMVSFMRDTLINIPGYSYNDNSYDLKLNSAFNLGEQEDHHGAEYVRRALKHNFDIDIKYYVMVDFETFAEAIDTLFPNGVKIDAKFATVGGVAVDSVEVPDDLRMKNGVVPNQTIEVGEQRMDGRTLLNYARFRKDDEGDFGRTVRQQQVMSAVMSQIKDPTKLFTGSAAIGKIYALTSTNVSFPFVVKNGVSVLGSGKNGVEHVTIPENGDWVDEYDMYGGQALYIDFDKYQKTLAKLGLRLEHHHHHH”, the “soluble on expression in E. coli” value is reported as “soluble”. With “MGSDKIHHHHHHMTAKVISFINMKGGVGKTTLCVGVSEFMAHFKSKKILLIDLDPQFNATQTLMDMYDLTDQYMNDIRFNKTIRLLFEETHSVSERPVLPKPDKVILHLDTSDVIDGELDIICGSIDLIKDDDSRKSKYKRVRKFLREQGLLKHYDYIFIDCPPTISFYTDAALYASDYYIVPTRIDRYSILGINLLKTVIEQAKFDDDLSIEPLGLIYTNYPTNNIPAPKQQEILDVLEENKDVLEIGVFRNKFHYLEHLMTGKSGNIASKYVKSKKDIEKISVEIESKVH” the “soluble on expression in E. coli” value was “not soluble”. For “MFENITAAPADPILGLADLFRADERPGKINLGIGVYKDETGKTPVLTSVKKAEQYLLENETTKNYLGIDGIPEFGRCTQELLFGKGSALINDKRARTAQTPGGTGALRVAADFLAKNTSVKRVWVSNPSWPNHKSVFNSAGLEVREYAYYDAENHTLDFDALINSLNEAQAGDVVLFHGCCHAPTGIDPTLEQWQTLAQLSVEKGWLPLFDFAYQGFARGLEEDAEGLRAFAAMHKELIVASSYSKNFGLYNERVGACTLVAADSETVDRAFSQMKAAILANYSNPPAHGASVVATILSNDALRAIWEQELTDMRQRIQRMRQLFVNTLQEKGANRDFSFIIKQNGMFSFSGLTKEQVLRLREEFGVYAVASGLVNVAGMTPDNMAPLCEAIVAVL”, the “soluble on expression in E. coli” value was “soluble”. For “MAHHHHHHMQYINDEGYRIDGRKNDECRLIKISLGNGNELIDVDGFSFFEIGNTKLFAYIQGPNEYRRPDEKCLVKCNVFLSPFNILEKKRKKSKDNVTREISSYIRNICNHIILLDLYKNSEINIFLYIIERDGGLKAAAVNTCILALIDAGIAIKYFISASSVLYLQNNIIVDGNQFEVNSGSPELTLAIDMSSNNIVLLEFDAEVPIDIFQSMLKTCAQACIHVGNIMKLSIKENAIKLLSLNSILNT”, the “soluble on expression in E. coli” value was “not soluble”. With “TLDEVKSLWDPRGISGTETASPQSDTPQAVSGASQPRWLRLSNGKQVDLRDWKVVLFMQGHCPYCHKFDPVLKQLAGQYGFSVFSYTIDGQGDDAFPEALPAPPDVMQTFFPNIPVATPTTFLVNVNTLAAYPILQGATDAQGFMARVDTVFQ” the “soluble on expression in E. coli” value was “not soluble”. In the case of “MSATNLAVEQLQRVLLPRRGEPADVRSLYLLEAESNKERLEWEDRFSVSVPAGAEVSFQTYFNAFPASYWRRWSQLDSVVLKLKVSGEARVDLYRSKIDGARIGITGSVVKDDFIEFEVSLAPFEDGGWIWFDLTAETDATVEEAGWYAPHAPKAQIMPDGSEVGPFEARATVGIPTFNRPADAVAALEALASDPAVDAVIDTVIMPDQGNKHPADEPGYKAAVEHFGDRFFEFRQGNLGGSGGYSRIMFEALGGVDGKGEAGAAKSPYILYMDDDIAIEPDSVLRALQVARYAKSPILVGGQMLNLQERSHLHTMGEVVGGHDFMWTAAPHVHYDHDFSAHPLHDRGKFDDKPDAPNSRDLHRRIDVDFNGWWMCMIPRVVAEQIGQPLPLFIKWDDAEYGLRARKAGFPTATWPGIAIWHMAWSDKDDAIDWQAYFHLRNRLVVAAMYHQGSVDGIVRSMQKATFKHLLCLEYSTVAIQNEAMKDFLAGPDQLFSILDTSLPRIAAIRKTYPDAVVLPSATELPRATGAPGVPTKDIGGRLAPIKKAMWLAKGLKHSLSKEDASHHEVPQANFAPIEARWFSLSRVDGATVTTADGRGVVYRKRDRDKAKELGKEARALQKQVAERFDELSRAYRNAHPELVSREAWGKVFDEQ”, the “soluble on expression in E. coli” value is reported as “not soluble”. With “MGSDKIHHHHHHMTDMTYDVEQDVVAESERISAIFSEVLDIGQVAATDNFFNLGGDSFDAIRVMSRLDGNLPIVALFEHPTAETLARFRLTEESLAITRLVPLFDQTKTNGPIVVICVPYGGGDPTAYRDLFNDHPDVRVFGVDFGDAEIHSPSDFSGLINTLVNEIEAIDAEQIIVYGHCAGAATAACLASAITFTTSAVSLVVAASNPVDDPDAAIHDAAMTSDADWGQYLRSLGAFNGLTDKETDAMLTKGRRDHFIATEAYRTLARQPARGIPAMLLLGDKDPATVKVEEIVNKWRKIIDLVKSANVTGGEHYFIRTHAQEVASKVLSFQLKHK” the “soluble on expression in E. coli” value was “not soluble”.
